± gives the uncertainty stated by the source.

A short description of this data set: amyloid nucleation score (Sup35N fusion, yeast selection) (log enrichment); library NNK3; higher = more nucleation; inactive = no reads after selection. In outline: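 Peptides of 20 random codons, each fused to Sup35N, were expressed in psi-negative yeast. Cells were induced with 100 μM copper sulfate for 24 hours and grown 7 days at 30°C on medium lacking adenine and uracil, and plasmid inserts before and after selection were Illumina-sequenced. Nucleation scores are DiMSum log enrichments of output over input reads, centred on the mode score of non-aggregating sequences, and sequences under 100 input reads were excluded.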

In the case of SETCWVIIYWYIGVKMFSRF, the amyloid nucleation score result was “inactive”.
For TRMSVQLISFAKLTFFSACM the value was “inactive”; for LIFLTMVSLLFGDQRRSGVQ, 0.221 ± 0.54; for NAHCMVLMHRAKVWIFMINK, “inactive”.
With GVDRRIR the entry was “inactive”; with YTRLRNVDTRAFMDSPDILW, “inactive”; with VFLPLPPCTC, “inactive”.
For FSCSYTMGQCEASCVWQLKY the value was 0.36 ± 0.35; for RMTVKQMLYHDWCTVRPSYC, “inactive”.
As for FMVWYREMDLVLVAQREEYK, the amyloid nucleation score entry is “inactive”.
For KLVICYCGYNHDCVVCTKRE the value was 1.56 ± 0.094; for ILKVVWYNSPEG, 0.898 ± 0.16.
Take TLNRLTKKHCFGNFWLYSAW: the amyloid nucleation score result is “inactive”.
For NFRLYLLNCN the value was “inactive”; for SPCIVLVQKLCGLGCRFVSV, 1.68 ± 0.11; for TVLSIIVFSYLLVCYHLVSV, “inactive”.
With HLCWNRQGNDRRELKSRWRK the entry was “inactive”; with RCTGRLRTVGRSSMLEFEFV, “inactive”; with LNSFSPGKNDCS, “inactive”.
For EYHKMTGIFAPLFILIMVV the value was “inactive”; for VRMGVNLGNKTLNTWESSCD, “inactive”.
With GDDIEILSFEVWRVFSKSWS, the amyloid nucleation score result was “inactive”.
With VAFGWDLFFNVLNLHCNVSN the figure was 1.89 ± 0.069; with DSVVRTSQMSVGYMCVRAEF, “inactive”.
With TGPFGINLRGR the entry was “inactive”; with EKTWKDWTHLSGRKRMI, “inactive”; with LYDTDSCLSSYCSPFRHPRY, “inactive”.
In the case of SWMSI, the amyloid nucleation score entry is “inactive”.
For SVDDFR the value was “inactive”; for THGNMCYEWIPKVPTIISVG, “inactive”; for LFGTFQWVDWGLFIL, “inactive”.
With NMIEVI the entry was “inactive”; with VEYQNI, “inactive”.
For FDVRCLWYCQK the value was 1.33 ± 0.17; for FTMSMYKGFRRCA, “inactive”.
In turn, IGEMNTPMPAMKFVMRWLDH returned an amyloid nucleation score of 0.845 ± 0.13.
For FPIWLLDCKEDCVLSDVAAS the value was “inactive”; for VYQLIYVTGCQNAVRE, 0.674 ± 0.32.
With MRVKGLIRWWETGCEKKSTA the entry was “inactive”; with SWVCCF, “inactive”; with HSRGENR, “inactive”.
Consider DLRALPKVFLMLDKYSIMSG, for which the amyloid nucleation score result is “inactive”.
With STYDRVKNLYVRRSAVVLPS, the amyloid nucleation score result is “inactive”.
For WCCHRAFLYI the value was “inactive”.
With EKGIGYKLCMGQYAGS the entry was “inactive”.
For SRQRIDYFMVRRSGSWSRQV the value was “inactive”; for SENICLYT, “inactive”; for DVMSILLTNVMLSKSALELS, “inactive”.
For NCDIPFFTRSEIVFLFVDFI, the amyloid nucleation score entry was “inactive”.
With RLCNHKILDPACVLTSQVPI the entry was “inactive”.
With FLLMLFVSGVRLFDYRRFWH the entry was “inactive”.
For ASATAYSVNLRLKVTVNM the value was 1.71 ± 0.12; for LMRLLLNYWSITAIILL, “inactive”; for SFKSTSYIITFNWKIVAVWK, “inactive”.
YLFVELYYL displayed an amyloid nucleation score of 0.187 ± 0.75.
For FFSTQAFLDLAHTRFVNPLG the value was “inactive”.
On to LTFVHNWFDPLCLHRNSAMN, for which the amyloid nucleation score entry was “inactive”.
For FFIDFVGTRCFN the value was “inactive”; for FLMDNMVSGIVFFTSSVIRG, “inactive”.
With GGHLLGHIASVFMEFCALQC the entry was “inactive”; with FCRPLSCRSIWCHLLPTHLR, “inactive”; with ITNFIRWNTNV, “inactive”.
For ARMLSVYSSESQCVTPGWCC the value was “inactive”; for RLCHRWFLDRLTICY, “inactive”.
Consider MASIVFFCMPSETNFVV, for which the amyloid nucleation score result is “inactive”.
For KWFMVA the value was “inactive”; for WGMSRLFVYFPVILLMISLT, “inactive”; for YYNSGSLNTYPVNLNLDNFH, “inactive”.
As to FSKVTFHSCGIQCERQVKNN, the amyloid nucleation score result was “inactive”.
For LQLLENQSNAIYWHGGNESD the value was “inactive”; for QDLMRTEHFNYS, “inactive”; for CYCLLGVRLHVWIS, “inactive”.
With ETHLDTLPVVYHLWLLHVLM the entry was “inactive”.
Turning to EVLNCSR, the amyloid nucleation score result is “inactive”.
With SRVTSIWRGYNFINIKRGDL the figure was -0.42 ± 1.3; with SHAEVCQLSTSGPL, “inactive”; with RSKSF, “inactive”.
With NLGKTLNTLYLVFTFRDVF the entry was “inactive”.
With VSMRPMTSSRLKRFKYRYLY the entry was “inactive”; with SFFRNRGGEDFFISWWFENN, “inactive”.
For YRGIKFTYKPGLLGQFHRED, the amyloid nucleation score result is “inactive”.
With SLGYGDI the entry was “inactive”.
For HNITPESAKVCKVRRCLGSD the value was 0.619 ± 0.2; for ILVCCISVETTHDNGPEVVG, 2.22 ± 0.061.
For LLIQNV the value was “inactive”.
In the case of WSNNMWYVRYSDFCISCLLV, the amyloid nucleation score result is “inactive”.
Consider LTGLEMLYYTCFNVCTRKCV, for which the amyloid nucleation score result was “inactive”.
In the case of YMLHGTRRLRRETYGGAGRR, the amyloid nucleation score result was “inactive”.
With RSDVI the entry was “inactive”; with FFGFPLV, “inactive”.
With CCNDWR the entry was “inactive”; with DSSFLATFFILVTGCCLLVD, “inactive”; with FMLCLMATLRKGLDANLWVT, “inactive”.
As to IFGSAFFRYYLCITQFCEYS, the amyloid nucleation score entry was “inactive”.
With VMGVAPSYASTYLLVILNMG the figure was 1.39 ± 0.15; with VSTGSAGSLWSV, “inactive”; with VAQSFEIGYYSGLYIYYCSV, “inactive”.
Take IHCYCS: the amyloid nucleation score result is “inactive”.
With TYQST the entry was “inactive”; with IWIMLHSCELWYADKADLDG, “inactive”; with YVFDHDIGQ, “inactive”.
With LCLGFVHPVIPFWIAML the entry was “inactive”.
With VFLQRCVDYMCDRNCFSVFA the entry was “inactive”; with SKTHRSVFMMAVIELKPTNS, “inactive”; with GKWKIKQ, “inactive”.
For the substance SRSCVACGLY, the amyloid nucleation score entry was “inactive”.
With ANTFKVWPKDICAGTVYM the entry was “inactive”; with WVWIVSMVRRGSEAFEALEM, “inactive”.
For IWSMWIYCRNGHH the value was “inactive”.
As to VVYYFKMLMGVTLYSMVIWQ, the amyloid nucleation score entry is “inactive”.
For LIRRSWSYCVLVSCTDGSHS the value was “inactive”.
With FFLTHGCTCEDALKFGWVCY the entry was “inactive”; with RYYNYVSHIPAHRAVTLSAT, “inactive”.
For GVMGYSSYSLSAENTVYSPW the value was “inactive”; for GFYVLMISVTLMDSQTPLR, 1.65 ± 0.11.
Consider NLVRFLLKFMVKEYLRFTYI, for which the amyloid nucleation score entry was “inactive”.
For the substance QWCCVTRFIGYSKGYGRKAP, the amyloid nucleation score result is “inactive”.
Turning to SKGTLKHLN, the amyloid nucleation score was found to be 0.921 ± 0.12.
Substance VIKTHMWLGL returned an amyloid nucleation score of 0.633 ± 0.24.
With FGYPMPIRNVSVVPVLFYKG the entry was “inactive”; with NHYCDFAVWSTFNLTLHHSL, “inactive”; with VYACWIMSNVPSRAVEILYS, “inactive”.
For HYRIESTVLE the value was -0.772 ± 0.8; for LTSMI, “inactive”.
For NHLGVRWVLSMNMTFPHHNL the value was 1.29 ± 0.089; for SAYSVHLSSVHFELVVET, “inactive”.
As to YEAYV, the amyloid nucleation score result is “inactive”.
For KFVVDARFVTS the value was 1.33 ± 0.13.
With SSNDPQHHVDAGEADQRSRV the entry was “inactive”; with SGVCYFHARTRKSSSLRELV, 1.2 ± 0.12.
With SNIDCLFNNVLCWIVFEWC the figure was 1.07 ± 0.11.
In the case of IFYVCRIIWCTERQVGKLGL, the amyloid nucleation score entry is “inactive”.

Source of the values: the supplement of paper PMC12042874.
